What all share (conditions): both partners purified
Test [1] deals with T1, dna2-D657A (nuclease-dead Dna2) (S. cerevisiae, UniProt P38859 1-1522, D657A).
T1 construct: Dna2, Saccharomyces cerevisiae, nuclease-dead version; Purified as the other Dna2 variants; FLAG tag used for quantum-dot labelling in DNA Curtains; also called dna2-D657A mutant; source: over-expressed in yeast, purified (Ni-NTA, anti-FLAG-M2 resin)
The test can be described thus: native gel or EMSA; ternary complex of dna2-D657A variants (20 nM), Rfa1 truncations or mutants (20 nM) and 5 nM dT(20) ssDNA; 150 mM KCl, 30 °C, 4% native gel.

Test [2] addresses T2, RPA–Y193A–GFP (RPA complex harboring rfa1–Y193A) (yeast (S. cerevisiae), UniProt P22336 1-621; P26754 1-273; P26755 1-122, Y193A).
T2 construct: Rfa1, large subunit of yeast RPA, with Y193A in the linker between Rfa1-N and DBD-A; Rfa2, middle subunit of yeast RPA; Rfa3, small subunit of yeast RPA; GFP is fused to one subunit and kept in the assay; preparation not described; also called RPA complex harboring rfa1–Y193A mutant; copies: + +
The test can be described thus: single-molecule DNA Curtains (TIRF microscopy); quantum-dot labelled Dna2 variants on ssDNA coated with RPA–GFP variants; NaCl concentration of these results not told in the text (conditions in Supplementary Table 1).

The target in the next test is T3, RPA–GFP (yeast (S. cerevisiae), UniProt P22336 1-621; P26754 1-273; P26755 1-122).
T3 construct: Rfa1, large subunit of yeast RPA; Rfa2, middle subunit of yeast RPA; Rfa3, small subunit of yeast RPA; GFP is fused to one subunit and kept in the assay (it is imaged); Coats the ssDNA of the DNA Curtains; also called RPA (green) on ssDNA; copies: + +
Described as above.

T3 sequence (P26754 whole entry, chain 2 of 2, the tested form may be a part): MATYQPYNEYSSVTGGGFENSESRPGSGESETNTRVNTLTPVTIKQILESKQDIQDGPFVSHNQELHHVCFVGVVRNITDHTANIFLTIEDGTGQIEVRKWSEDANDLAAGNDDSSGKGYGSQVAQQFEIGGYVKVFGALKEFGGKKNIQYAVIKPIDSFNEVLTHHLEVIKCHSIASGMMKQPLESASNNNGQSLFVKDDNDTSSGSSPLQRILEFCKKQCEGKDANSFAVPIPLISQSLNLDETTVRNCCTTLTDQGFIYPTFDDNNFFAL
T3 sequence (P26755 whole entry, chain 3 of 2, the tested form may be a part): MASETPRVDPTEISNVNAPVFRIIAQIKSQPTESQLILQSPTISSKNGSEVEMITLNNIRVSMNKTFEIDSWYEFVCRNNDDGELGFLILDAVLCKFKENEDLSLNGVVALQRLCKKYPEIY

B1: Rfa1-N-DBD-A/B (Rfa1–NAB, amino acid 1–435) (domain or fragment, yeast (S. cerevisiae), UniProt P22336 1-435, looked up)
chain: MSSVQLSRGDFHSIFTNKQRYDNPTGGVYQVYNTRKSDGANSNRKNLIMISDGIYHMKALLRNQAASKFQSMELQRGDIIRVIIAEPAIVRERKKYVLLVDDFELVQSRADMVNQTSTFLDNYFSEHPNETLKDEDITDSGNVANQTNASNAGVPDMLHSNSNLNANERKFANENPNSQKTRPIFAIEQLSPYQNVWTIKARVSYKGEIKTWHNQRGDGKLFNVNFLDTSGEIRATAFNDFATKFNEILQEGKVYYVSKAKLQPAKPQFTNLTHPYELNLDRDTVIEECFDESNVPKTHFNFIKLDAIQNQEVNSNVDVLGIIQTINPHFELTSRAGKKFDRRDITIVDDSGFSISVGLWNQQALDFNLPEGSVAAIKGVRVTDFGGKSLSMGFSSTLIPNPEIPEAYALKGWYDSKGRNANFITLKQEPGMGGQ
notes: Rfa1 of yeast RPA, residues 1-435 (N, DBD-A and DBD-B domains); The 6xHis tag can optionally be removed by TEV protease; also called NAB polypeptide; pHis–Rfa1 1–435; source: E. coli BL21 codon plus, purified (Ni-NTA, Superdex 200)
Turning to B1, the binding result in test [1] is “binds”.

B2: rfa1–NAB–K45E (pHis-Rfa1 1-435 K45E) (domain or fragment, yeast (S. cerevisiae), UniProt P22336 1-435, looked up)
chain: MSSVQLSRGDFHSIFTNKQRYDNPTGGVYQVYNTRKSDGANSNRENLIMISDGIYHMKALLRNQAASKFQSMELQRGDIIRVIIAEPAIVRERKKYVLLVDDFELVQSRADMVNQTSTFLDNYFSEHPNETLKDEDITDSGNVANQTNASNAGVPDMLHSNSNLNANERKFANENPNSQKTRPIFAIEQLSPYQNVWTIKARVSYKGEIKTWHNQRGDGKLFNVNFLDTSGEIRATAFNDFATKFNEILQEGKVYYVSKAKLQPAKPQFTNLTHPYELNLDRDTVIEECFDESNVPKTHFNFIKLDAIQNQEVNSNVDVLGIIQTINPHFELTSRAGKKFDRRDITIVDDSGFSISVGLWNQQALDFNLPEGSVAAIKGVRVTDFGGKSLSMGFSSTLIPNPEIPEAYALKGWYDSKGRNANFITLKQEPGMGGQ
notes: Rfa1 of yeast RPA, residues 1-435, charge reversal in the basic cleft of Rfa1-N; also called rfa1–t11; rfa1–K45E; source: E. coli BL21 codon plus, purified (Ni-NTA, Superdex 200)
In the case of B2, the binding result in test [1] was “binds”.

B3: Dna2 (wild type, FLAG-His6-tagged) (enzyme, S. cerevisiae, UniProt P38859 1-1522, looked up)
chain: MPGTPQKNKRSASISVSPAKKTEEKEIIQNDSKAILSKQTKRKKKYAFAPINNLNGKNTKVSNASVLKSIAVSQVRNTSRTKDINKAVSKSVKQLPNSQVKPKREMSNLSRHHDFTQDEDGPMEEVIWKYSPLQRDMSDKTTSAAEYSDDYEDVQNPSSTPIVPNRLKTVLSFTNIQVPNADVNQLIQENGNEQVRPKPAEISTRESLRNIDDILDDIEGDLTIKPTITKFSDLPSSPIKAPNVEKKAEVNAEEVDKMDSTGDSNDGDDSLIDILTQKYVEKRKSESQITIQGNTNQKSGAQESCGKNDNTKSRGEIEDHENVDNQAKTGNAFYENEEDSNCQRIKKNEKIEYNSSDEFSDDSLIELLNETQTQVEPNTIEQDLDKVEKMVSDDLRIATDSTLSAYALRAKSGAPRDGVVRLVIVSLRSVELPKIGTQKILECIDGKGEQSSVVVRHPWVYLEFEVGDVIHIIEGKNIENKRLLSDDKNPKTQLANDNLLVLNPDVLFSATSVGSSVGCLRRSILQMQFQDPRGEPSLVMTLGNIVHELLQDSIKYKLSHNKISMEIIIQKLDSLLETYSFSIIICNEEIQYVKELVMKEHAENILYFVNKFVSKSNYGCYTSISGTRRTQPISISNVIDIEENIWSPIYGLKGFLDATVEANVENNKKHIVPLEVKTGKSRSVSYEVQGLIYTLLLNDRYEIPIEFFLLYFTRDKNMTKFPSVLHSIKHILMSRNRMSMNFKHQLQEVFGQAQSRFELPPLLRDSSCDSCFIKESCMVLNKLLEDGTPEESGLVEGEFEILTNHLSQNLANYKEFFTKYNDLITKEESSITCVNKELFLLDGSTRESRSGRCLSGLVVSEVVEHEKTEGAYIYCFSRRRNDNNSQSMLSSQIAANDFVIISDEEGHFCLCQGRVQFINPAKIGISVKRKLLNNRLLDKEKGVTTIQSVVESELEQSSLIATQNLVTYRIDKNDIQQSLSLARFNLLSLFLPAVSPGVDIVDERSKLCRKTKRSDGGNEILRSLLVDNRAPKFRDANDDPVIPYKLSKDTTLNLNQKEAIDKVMRAEDYALILGMPGTGKTTVIAEIIKILVSEGKRVLLTSYTHSAVDNILIKLRNTNISIMRLGMKHKVHPDTQKYVPNYASVKSYNDYLSKINSTSVVATTCLGINDILFTLNEKDFDYVILDEASQISMPVALGPLRYGNRFIMVGDHYQLPPLVKNDAARLGGLEESLFKTFCEKHPESVAELTLQYRMCGDIVTLSNFLIYDNKLKCGNNEVFAQSLELPMPEALSRYRNESANSKQWLEDILEPTRKVVFLNYDNCPDIIEQSEKDNITNHGEAELTLQCVEGMLLSGVPCEDIGVMTLYRAQLRLLKKIFNKNVYDGLEILTADQFQGRDKKCIIISMVRRNSQLNGGALLKELRRVNVAMTRAKSKLIIIGSKSTIGSVPEIKSFVNLLEERNWVYTMCKDALYKYKFPDRSNAIDEARKGCGKRTGAKPITSKSKFVSDKPIIKEILQEYES
notes: Dna2 nuclease-helicase, Saccharomyces cerevisiae, wild type; Wild-type protein; In DNA Curtains it was labelled with anti-FLAG quantum dots; in MST with the His-tag labelling kit RED-tris-NTA; also called wild-type Dna2; (His)6-tagged Dna2; source: over-expressed in yeast, purified (Ni-NTA, anti-FLAG-M2 resin)
Turning to B3, the “recruitment relative to wild-type RPA” value in test [2] is 80%.

B4: dna2-AC (dna2-D357A,E358A,D361A,D362A,E366A), FLAG-His6-tagged (enzyme, S. cerevisiae, UniProt P38859 1-1522, looked up)
chain: MPGTPQKNKRSASISVSPAKKTEEKEIIQNDSKAILSKQTKRKKKYAFAPINNLNGKNTKVSNASVLKSIAVSQVRNTSRTKDINKAVSKSVKQLPNSQVKPKREMSNLSRHHDFTQDEDGPMEEVIWKYSPLQRDMSDKTTSAAEYSDDYEDVQNPSSTPIVPNRLKTVLSFTNIQVPNADVNQLIQENGNEQVRPKPAEISTRESLRNIDDILDDIEGDLTIKPTITKFSDLPSSPIKAPNVEKKAEVNAEEVDKMDSTGDSNDGDDSLIDILTQKYVEKRKSESQITIQGNTNQKSGAQESCGKNDNTKSRGEIEDHENVDNQAKTGNAFYENEEDSNCQRIKKNEKIEYNSSAAFSAASLIALLNETQTQVEPNTIEQDLDKVEKMVSDDLRIATDSTLSAYALRAKSGAPRDGVVRLVIVSLRSVELPKIGTQKILECIDGKGEQSSVVVRHPWVYLEFEVGDVIHIIEGKNIENKRLLSDDKNPKTQLANDNLLVLNPDVLFSATSVGSSVGCLRRSILQMQFQDPRGEPSLVMTLGNIVHELLQDSIKYKLSHNKISMEIIIQKLDSLLETYSFSIIICNEEIQYVKELVMKEHAENILYFVNKFVSKSNYGCYTSISGTRRTQPISISNVIDIEENIWSPIYGLKGFLDATVEANVENNKKHIVPLEVKTGKSRSVSYEVQGLIYTLLLNDRYEIPIEFFLLYFTRDKNMTKFPSVLHSIKHILMSRNRMSMNFKHQLQEVFGQAQSRFELPPLLRDSSCDSCFIKESCMVLNKLLEDGTPEESGLVEGEFEILTNHLSQNLANYKEFFTKYNDLITKEESSITCVNKELFLLDGSTRESRSGRCLSGLVVSEVVEHEKTEGAYIYCFSRRRNDNNSQSMLSSQIAANDFVIISDEEGHFCLCQGRVQFINPAKIGISVKRKLLNNRLLDKEKGVTTIQSVVESELEQSSLIATQNLVTYRIDKNDIQQSLSLARFNLLSLFLPAVSPGVDIVDERSKLCRKTKRSDGGNEILRSLLVDNRAPKFRDANDDPVIPYKLSKDTTLNLNQKEAIDKVMRAEDYALILGMPGTGKTTVIAEIIKILVSEGKRVLLTSYTHSAVDNILIKLRNTNISIMRLGMKHKVHPDTQKYVPNYASVKSYNDYLSKINSTSVVATTCLGINDILFTLNEKDFDYVILDEASQISMPVALGPLRYGNRFIMVGDHYQLPPLVKNDAARLGGLEESLFKTFCEKHPESVAELTLQYRMCGDIVTLSNFLIYDNKLKCGNNEVFAQSLELPMPEALSRYRNESANSKQWLEDILEPTRKVVFLNYDNCPDIIEQSEKDNITNHGEAELTLQCVEGMLLSGVPCEDIGVMTLYRAQLRLLKKIFNKNVYDGLEILTADQFQGRDKKCIIISMVRRNSQLNGGALLKELRRVNVAMTRAKSKLIIIGSKSTIGSVPEIKSFVNLLEERNWVYTMCKDALYKYKFPDRSNAIDEARKGCGKRTGAKPITSKSKFVSDKPIIKEILQEYES
notes: Dna2, Saccharomyces cerevisiae, with all acidic residues of the second acidic patch (amino acid 355-366) changed to alanine; source: over-expressed in yeast, purified (Ni-NTA, anti-FLAG-M2 resin)
Take B4: the “fold less recruitment than wild-type Dna2” value with RPA–GFP was approximately 2 fold.

Values taken from paper PMC8766458, “Deciphering the mechanism of processive ssDNA digestion by the Dna2-RPA ensemble” (Nature Communications, 2022).
